B1: anti-CfaE HuMab 68-48 (antibody, human IgG1, V domains shown)
VH: QVQLQQWGAGLLKPSETLSLTCAVYGGSFSGYSWSWIRQSPGKGLEWIGEIYHSGSTNYNPSLKSRVTISGDTSKNQFSLKLSSVTAADTAVYYCARENLQGYYYYGMDVWGQGTTVTVSS
VL: AIQLTQSPSSLSASVGDRVTITCRASQGISSSLAWYQQKPGKAPKLLIYDASSLESGVPSRFSGSGSGTDFTLTISSLQPEDFATYYCQQFNSYPRTFGQGTKVEIK
notes: also called 068-48
B2: anti-CfaE HuMab 68-90 (antibody, human IgG1, V domains shown)
VH: QVQLQQWGAGLLKPSETLSLTCAVYGGSFSAYYWSWIRQPPGKGLEWIGEINHSGNTNYNPSLESRVTISVDTSKNQVSLKQSSVTAADTAVYYCARNWGPNAFDIWGRGTMVTVSS
VL: DIQMTQSPSSVSASVGDRVTITCRASQDITSWLVWYQHKPGKAPKLLIYAASSLQSGVPSRFSGSGSGTDFTLTISSLQPEDFATYYCQQANIFPYTFGQGTKLEIK
notes: also called 068-90
B3: anti-CfaE HuMab 68-61 (antibody, human IgG1, V domains shown)
VH: QVQLVQSGAEVKNPGSSVRVSCEASGGTFSSFAISWVRQAPGQGLEWMGRIIPILDIVKYAQRFQGRVTISADKSTSTAYMELSSLRSEGTAVYYCARDDIAGSDFDIWGQGTMVTVSS
VL: DIQMTQSPSSLSASVGDRVTITCRASQGISSWLAWYQQKPEKAPKSLIYAASSLQSGVPSRFSGSGSGTDFTLTISSLQPEDFATYYCQQYTSYPYTFGQGTKLEIK
notes: also called 068-61

Columns and labels:
[1] = target: T1, N-terminal adhesin domain of CfaE fused to maltose-binding protein (MBP-CfaE-N) (enterotoxigenic Escherichia coli (ETEC), UniProt P25734 23-200); assay: ELISA on plate-bound wild-type MBP-CfaE-N, OD405
T1 construct: domain: N-terminal adhesin domain; expressed in SHuffle T7 E. coli and purified on amylose resin; also called recombinant CfaE-N; wild-type CfaE; not shown: donor strand complement included as in Poole et al. 2007
T1 sequence (looked up): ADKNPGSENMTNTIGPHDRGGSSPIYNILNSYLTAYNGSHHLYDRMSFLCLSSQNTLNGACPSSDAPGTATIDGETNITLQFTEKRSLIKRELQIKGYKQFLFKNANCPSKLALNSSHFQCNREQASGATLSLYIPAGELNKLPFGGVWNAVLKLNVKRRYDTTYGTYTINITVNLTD
Procedure: (§1) For binding activity of purified HuMAbs against CfaE, 96-well plates (Nunc) were coated overnight at 4° C. with 2 μg/mL of purified MBP-CfaE-N. Plates were blocked with 1% BSA+0.05% Tween 20 in PBS. Purified HuMabs were diluted in 1×PBS+0.1% Tween 20 and added to plates for 1 hour. Plates were stained with alkaline phosphatase-conjugated goat anti-human IgG Fcγ (Jackson ImmunoResearch Laboratories) (1:1,000) for 1 hour and developed using p-nitrophenyl phosphate (ThermoFisher Scientific).
To define the antibody-binding epitope, putative antibody-antigen interaction models were established based on a previously resolved CfaE structure (PDB ID 2Hb0) and the HuMab antibody sequences using an antibody modeling program, BioLuminate (Schrodinger). This software suite develops models of antibody structures from their sequences, followed by computational docking to identify high-confidence antibody-antigen complex models. Based on these models, the software identified potential residues critical for binding interaction. The effect of these residues on the binding activity of the HuMAbs was analyzed by experimental alanine scanning followed by ELISA. […] The R67A mutation eliminated binding activity of HuMab 68-51 and 68-97 (FIG. 3B), while the Y183A mutation affected binding activity of HuMab 68-51, 68-97, 68-90, 67-102, and 840-53 (FIG. 3E). […] T91A mutation eliminated binding activity of HuMAb 840-53 and reduced binding activities of HuMAbs 68-51, 68-61, 840-53 and 68-48 (FIG. 3C). N127A mutation eliminated binding activity of HuMAb 68-61 and reduced binding of HuMAbs 68-48 and 68-6 (FIG. 3F). All mutations were found on the surface exposed loops of the N-terminal domain of the CfaE (FIG. 3G). No residues involved in the binding of MAb 68-75 to CfaE were identified.

[2] = target: T1, N-terminal adhesin domain of CfaE fused …; assay: ELISA on plate-bound MBP-CfaE-N, anti-human IgG Fc-AP, OD405
Description: FIG. 1A is a graph showing concentration-dependent binding of anti-CfaE antibodies as measured by ELISA. IgG bound to immobilized recombinant CfaE-N was detected with an anti-human IgG Fc-chain-specific alkaline phosphatase-conjugated antibody. Error bars represent the range in OD values observed in two independent experiments. The binding curves of the ten anti-CfaE antibodies are superimposed.
as §1

[3] = target: T2, MBP-CfaE-N Tyr183Ala mutant (enterotoxigenic Escherichia coli); assay: ELISA on plate-bound MBP-CfaE-N Tyr183Ala mutant, OD405
T2 construct: tag;N-terminal adhesin domain; not in the list MOLECULES; also called Y183A
Procedure: as §1
To define the antibody-binding epitope, putative antibody-antigen interaction models were established based on a previously resolved CfaE structure (PDB ID 2Hb0) and the HuMab antibody sequences using an antibody modeling program, BioLuminate (Schrodinger). This software suite develops models of antibody structures from their sequences, followed by computational docking to identify high-confidence antibody-antigen complex models. Based on these models, the software identified potential residues critical for binding interaction. The effect of these residues on the binding activity of the HuMAbs was analyzed by experimental alanine scanning followed by ELISA. […] The R67A mutation eliminated binding activity of HuMab 68-51 and 68-97 (FIG. 3B), while the Y183A mutation affected binding activity of HuMab 68-51, 68-97, 68-90, 67-102, and 840-53 (FIG. 3E). […]

| Binder | EC50 (read off the curve) [1] [µg/mL] | EC50 (read off the curve) [2] [µg/mL] | EC50 (read off the curve) [3] [µg/mL] |
| --- | --- | --- | --- |
| B1 | ~0.03 | ~0.03 | ~0.01 |
| B2 | ~0.03 | ~0.03 | – |
| B3 | ~0.03 | ~0.03 | ~0.01 |

Reference: patent US20210388068A1 (UNIVERSITY OF MASSACHUSETTS, published 2021)
